± gives the standard deviation of the averaged measurements.
Test: total protein half-life in vivo (active degradation + dilution); higher = more stable protein
[1] = E. coli NCM3722 delta-clpP delta-lon delta-hslV, growth: N-lim chemostat, doubling time 6 h
[2] = E. coli NCM3722 delta-clpP, growth: N-lim chemostat, doubling time 6 h
[3] = E. coli NCM3722 delta-hslV, growth: N-lim chemostat, doubling time 6 h
[4] = E. coli NCM3722 delta-lon, growth: N-lim chemostat, doubling time 6 h
[5] = E. coli NCM3722 delta-smpB, growth: N-lim chemostat, doubling time 6 h
[6] = wild type E. coli NCM3722, growth: C-lim chemostat, doubling time 3 h
[7] = wild type E. coli NCM3722, growth: C-lim chemostat, doubling time 6 h
[8] = wild type E. coli NCM3722, growth: C-lim chemostat, doubling time 12 h
[9] = wild type E. coli NCM3722, growth: N-lim chemostat, doubling time 6 h
[10] = wild type E. coli NCM3722, growth: N-lim chemostat, doubling time 12 h
[11] = wild type E. coli NCM3722, growth: P-lim chemostat, doubling time 6 h
[12] = wild type E. coli NCM3722, growth: P-lim chemostat, doubling time 12 h

Sequence	total protein half-life in vivo [1] [h]	total protein half-life in vivo [2] [h]	total protein half-life in vivo [3] [h]	total protein half-life in vivo [4] [h]	total protein half-life in vivo [5] [h]	total protein half-life in vivo [6] [h]	total protein half-life in vivo [7] [h]	total protein half-life in vivo [8] [h]	total protein half-life in vivo [9] [h]	total protein half-life in vivo [10] [h]	total protein half-life in vivo [11] [h]	total protein half-life in vivo [12] [h]
MKLNDSNLFRQQALINGEWLDANNGEAIDVTNPANGDKLGSVPKMGADETRAAIDAANRALPAWRALTAKERATILRNWFNLMMEHQDDLARLMTLEQGKPLAEAKGEISYAASFIEWFAEEGKRIYGDTIPGHQADKRLIVIKQPIGVTAAITPWNFPAAMITRKAGPALAAGCTMVLKPASQTPFSALALAELAIRAGVPAGVFNVVTGSAGAVGNELTSNPLVRKLSFTGSTEIGRQLMEQCAKDIKKVSLELGGNAPFIVFDDADLDKAVEGALASKFRNAGQTCVCANRLYVQDGVYDRFAEKLQQAVSKLHIGDGLDNGVTIGPLIDEKAVAKVEEHIADALEKGARVVCGGKAHERGGNFFQPTILVDVPANAKVSKEETFGPLAPLFRFKDEADVIAQANDTEFGLAAYFYARDLSRVFRVGEALEYGIVGINTGIISNEVAPFGGIKASGLGREGSKYGIEDYLEIKYMCIGL	4.773 ± 0.035	4.35 ± 0.32	3.93 ± 0.08	4.251 ± 0.0095	3.87 ± 0.14	2.86 ± 0.26	5.44 ± 0.58	9.938 ± 0.016	3.96 ± 0.29	5.95 ± 0.61	5.72 ± 0.12	11 ± 0.44
MKLNIFTKSMIGMGLVCSALPALAMEAWNNQQGGNKYQVIFDGKIYENAWWVSSTNCPGKAKANDATNPWRLKRTATAAEISQFGNTLSCEKSGSSSSSNSNTPASNTPANGGSATPAQGTVPSNSSVVAWNKQQGGQTWYVVFNGAVYKNAWWVASSNCPGDAKSNDASNPWRYVRAATATEISETSNPQSCTSAPQPSPDVKPAPDVKPAPDVQPAPADKSNDNYAVVAWKGQEGSSTWYVIYNGGIYKNAWWVGAANCPGDAKENDASNPWRYVRAATATEISQYGNPGSCSVKPDNNGGAVTPVDPTPETPVTPTPDNSEPSTPADSVNDYSLQAWSGQEGSEIYHVIFNGNVYKNAWWVGSKDCPRGTSAENSNNPWRLERTATAAELSQYGNPTTCEIDNGGVIVADGFQASKAYSADSIVDYNDAHYKTSVDQDAWGFVPGGDNPWKKYEPAKAWSASTVYVKGDRVVVDGQAYEALFWTQSDNPALVANQNATGSNSRPWKPLGKAQSYSNEELNNAPQFNPETLYASDTLIRFNGVNYISQSKVQKVSPSDSNPWRVFVDWTGTKERVGTPKKAWPKHVYAPYVDFTLNTIPDLAALAKNHNVNHFTLAFVVSKDANTCLPTWGTAYGMQNYAQYSKIKALREAGGDVMLSIGGANNAPLAASCKNVDDLMQHYYDIVDNLNLKVLDFDIEGTWVADQASIERRNLAVKKVQDKWKSEGKDIAIWYTLPILPTGLTPEGMNVLSDAKAKGVELAGVNVMTMDYGNAICQSANTEGQNIHGKCATSAIANLHSQLKGLHPNKSDAEIDAMMGTTPMVGVNDVQGEVFYLSDARLVMQDAQKRNLGMVGIWSIARDLPGGTNLSPEFHGLTKEQAPKYAFSEIFAPFTKQ	4.89 ± 0.41	7.07 ± 0.34	5.22 ± 1.2	–	5.97 ± 0.68	–	5.72	10.9 ± 1.9	5.87 ± 0.36	12.9 ± 0.98	6.31 ± 0.59	–
MKLPVREFDAVVIGAGGAGMRAALQISQSGQTCALLSKVFPTRSHTVSAQGGITVALGNTHEDNWEWHMYDTVKGSDYIGDQDAIEYMCKTGPEAILELEHMGLPFSRLDDGRIYQRPFGGQSKNFGGEQAARTAAAADRTGHALLHTLYQQNLKNHTTIFSEWYALDLVKNQDGAVVGCTALCIETGEVVYFKARATVLATGGAGRIYQSTTNAHINTGDGVGMAIRAGVPVQDMEMWQFHPTGIAGAGVLVTEGCRGEGGYLLNKHGERFMERYAPNAKDLAGRDVVARSIMIEIREGRGCDGPWGPHAKLKLDHLGKEVLESRLPGILELSRTFAHVDPVKEPIPVIPTCHYMMGGIPTKVTGQALTVNEKGEDVVVPGLFAVGEIACVSVHGANRLGGNSLLDLVVFGRAAGLHLQESIAEQGALRDASESDVEASLDRLNRWNNNRNGEDPVAIRKALQECMQHNFSVFREGDAMAKGLEQLKVIRERLKNARLDDTSSEFNTQRVECLELDNLMETAYATAVSANFRTESRGAHSRFDFPDRDDENWLCHSLYLPESESMTRRSVNMEPKLRPAFPPKIRTY [P0AC41]	6.32 ± 0.098	6.04 ± 0.75	5.73 ± 0.33	5.17 ± 0.66	5.69 ± 0.26	3.17 ± 0.15	6.49 ± 0.39	11.6 ± 1.4	5.81 ± 0.35	11 ± 0.49	6.2 ± 0.12	13.3 ± 0.3
MKLQKQLLEAVEHKQLRPLDVQFALTVAGDEHPAVTLAAALLSHDAGEGHVCLPLSRLENNEASHPLLATCVSEIGELQNWEECLLASQAVSRGDEPTPMILCGDRLYLNRMWCNERTVARFFNEVNHAIEVDEALLAQTLDKLFPVSDEINWQKVAAAVALTRRISVISGGPGTGKTTTVAKLLAALIQMADGERCRIRLAAPTGKAAARLTESLGKALRQLPLTDEQKKRIPEDASTLHRLLGAQPGSQRLRHHAGNPLHLDVLVVDEASMIDLPMMSRLIDALPDHARVIFLGDRDQLASVEAGAVLGDICAYANAGFTAERARQLSRLTGTHVPAGTGTEAASLRDSLCLLQKSYRFGSDSGIGQLAAAINRGDKTAVKTVFQQDFTDIEKRLLQSGEDYIAMLEEALAGYGRYLDLLQARAEPDLIIQAFNEYQLLCALREGPFGVAGLNERIEQFMQQKRKIHRHPHSRWYEGRPVMIARNDSALGLFNGDIGIALDRGQGTRVWFAMPDGNIKSVQPSRLPEHETTWAMTVHKSQGSEFDHAALILPSQRTPVVTRELVYTAVTRARRRLSLYADERILSAAIATRTERRSGLAALFSSRE	4.81 ± 0.19	4.01 ± 1.1	2.9 ± 0.19	3.33 ± 0.44	2.739 ± 0.015	2.89 ± 0.43	4.39 ± 0.1	6.98 ± 0.28	2.97 ± 0.079	4.37 ± 0.29	4.36 ± 0.065	7.54 ± 0.6
MKLQLVAVGTKMPDWVQTGFTEYLRRFPKDMPFELIEIPAGKRGKNADIKRILDKEGEQMLAAAGKNRIVTLDIPGKPWDTPQLAAELERWKLDGRDVSLLIGGPEGLSPACKAAAEQSWSLSALTLPHPLVRVLVAESLYRAWSITTNHPYHRE [P0A8I8]	5.401 ± 0.053	3.23 ± 0.13	5.99 ± 1.1	6.18 ± 1.4	3.18 ± 0.43	2.78 ± 0.13	4.96 ± 0.5	9.34 ± 2	4.87 ± 0.21	8.26 ± 0.7	4.57 ± 0.29	9.29 ± 0.3

— the supplement of paper PMC11246515
